Reference: the DeepSol protein solubility set

Assay: soluble on expression in E. coli; label from the status in PepcDB or PDB records

Sequence	soluble on expression in E. coli
MTTTLFSSRIIQSALDFDVYKVNMMSAVAALYPDAMVSYKFIVRSEEDLSELLPEVKAEVLKLQDVRFTEDEIAYMKRVAPYLKPEFVEALRHFRFNPQSDVSFHNKTMSDGSSQLRITINGLWKETILYETIIMSIVSEVRSRQRWSDIPFEQFQTVLEDKVRYLKAELERRNITNFKFADMSTRRRFSFQAQRTMLEYLSKELPQCLTGTSNYHLARELDLTPIGTVAHEWFMGHQALVNVRDSQKIALQRWQKMFNGALGIALTDTIGIDAFLKDFDEELSHAYVGVRHDSGCPFTWGEKMIAHYESLGIDPMTKTLVFTDGLNFEQALDICEHFQGRVQVSFGIGTSLANDMGNYVNDQGEAYQPLSIVIKMVTCNGSPVAKISDEPEKAMCEDIFFLMNLKRRFEQPLDLNECRKLIDRLESEGQNYLIDALEHHHHHH	soluble
MTTTTLTVPFRFDVVGSLLRPASLKKAHEQLAAGTITRDQELEIQHTEIKRVVAEQVKLGLKAVTDGEFSRSWWHLDFLWGLTGVGKYDYHQSYKFKGDHTRTDNAELIGKVAYNPDHPFFAAFEYLQSIVPAGVLAKQTIPSPTMLFRDNRSDNWTKFYDSWDAYLNDLAQAYHDTIQHFYDLGCRYIQLDDTTWAFLISKLNDPEADHAAYTKWATDAVTVINAALADLPSDLTVTTHICRGNFKSTYLFSGSYDVVAPYLGQLNYDGLFLEYDNERAGGFEALDQIWNHDDHKRIVLGLVTSKFPELEKTTVIKERVQAATTKVPLRNLALSTQCGFASTEEGNQLTEAQQWAKLALVIGTAKEVWSEALEHHHHHH	not soluble
MTVAKAIFIKCGNLGTSMMMDMLLDERADREDVEFRVVGTSVKMDPECVEAAVEMALDIAEDFEPDFIVYGGPNPAAPGPSKAREMLADSEYPAVIIGDAPGLKVKDEMEEQGLGYILVKPDAMLGARREFLDPVEMAIYNADLMKVLAATGVFRVVQEAFDELIEKAKEDEISENDLPKLVIDRNTLLEREEFENPYAMVKAMAALEIAENVADVSVEGCFVEQDKERYVPIVASAHEMMRKAAELADEARELEKSNDAVLRTPHAPDGKVLSKRKFMEDPE	soluble
MTVERIAEQPLDSELGHFNLITYRDSVEGDVHLALTLGKVCAEEPTLVRVHNMDPLRDLLQVNQPGRWSLRAAMTKVAEAGSGVVLLLGHQIGGDDLLAHVREIASAPAPAPKATTTYSTVGAGSQILRDLGVRKMRLLSAPMRFNAISGFDLEVVEYLPA	soluble
MTVFVDHKIEYMSLEDDAELLKTMAHPMRLKIVNELYKHKALNVTQIIQILKLPQSTVSQHLCKMRGKVLKRNRQGLEIYYSINNPKVEGIIKLLNPIQ	soluble
MTVIQTHGLTKRYGRVVAVEDLNLSVREGEVYGLLGPNGSGKTTTILMLLGLTEPTSGEARVLGFDPMREPLKVKSRVGYLPDQVGFYGELSAWENLRYTTRLLGLPDKEAEARIEEVLKRMGLWEVRDRKVAAFSRGMRQRLGLAEVLLKRPKVAILDEPTLGLDPEAAREFLDLIKGLKAEGITVLLSSHLLHQVQEVCDRVGLFHKGRLALEGTVAELAHRVLGGQYEILLEGAPGLEGALEAVEGVSRVEAEGGRYRVLATRDLRPELARLVVERGPLYALSLRQPSLDEIYAHYFKEVAHAA	soluble
MTVQTSKNPQVDIAEDNAFFPSEYSLSQYTSPVSDLDGVDYPKPYRGKHKILVIAADERYLPTDNGKLFSTGNHPIETLLPLYHLHAAGFEFEVATISGLMTKFEYWAMPHKDEKVMPFFEQHKSLFRNPKKLADVVASLNADSEYAAIFVPGGHGALIGLPESQDVAAALQWAIKNDRFVISLCHGPAAFLALRHGDNPLNGYSICAFPDAADKQTPEIGYMPGHLTWYFGEELKKMGMNIINDDITGRVHKDRKLLTGDSPFAANALGKLAAQEMLAAYAGLEHHHHHH	soluble
MTVVLTLLLLLVLVGCAKPKVEQTVKLGGAVKTIGDLVVLSGNSNLPKGAVVQIVMKEIEGGKQVLEEKVKVGGDGSYSWSAKRPERAKEYELDVMFLPELQPKHVKEKYGEKGELIKKDSSGRVEYQTDGQTYVGIKMYDRILKIGDGMGGQQSMLAETLPPPPPSY	not soluble
MTWLDEKGRFAIYEAPQNCPYLGTIGTCYEFGSLPVILMFPELEKLFLKLLISYVRNDGYVPHDLGFHSLDSPIDGTTSPPKWKDMNPSLILLVYRYFKFTNDIDFLKEVYPTIVKVMDWELRQCRDGLPFMEGEMDNAFDATIIKGHDSYTSSLFIASLIAMREIAKLVGDSNYVGFINEKLNVAREAFRKMFNGKYFKAWDGVDKASFLAQLYGEWFTTLLELENIVDENMIKSALESIIRLNGNASPYCVPNLVDENGKIVNLSVQTYSSWPRLVFAICWLAYKKGVGDLSFCKKEWDNLVRNGMVWDQPSRINCYTGKPEINYLDHYVGSPSLWSFLFLEHHHHHH	not soluble
MTYEIVIAGFGGQGVLSMGKILAYSGLMEDKEVSWMPSYGPEQRGGTSNVTVIVSDEQVSSPVLNEYDIVIVLNQPSLDKFEARVKKGGILVYDPDSIVLKNKRDDIQIYEVDATQESLRMGNQKAFNMIVLGGVLKVAPMVKIESVIKGLKKTLPERHHKLIPMNEQAIQRGMEIIKQIH	not soluble
MTYKYNCCDDGSGTTVGSVVRFDNVTLLIDPGWNPSKVSYEQCIKYWEKVIPEIDVIILSQPTIECLGAHSLLYYNFTSHFISRIQVYATLPVINLGRVSTIDSYASAGVIGPYDTNKLDLEDIEISFDHIVPLKYSQLVDLRSRYDGLTLLAYNAGVCPGGSIWCISTYSEKLVYAKRWNHTRDNILNAASILDATGKPLSTLMRPSAIITTLDRFGSSQPFKKRSKIFKDTLKKGLSSDGSVIIPVDMSGKFLDLFTQVHELLFESTKINAHTQVPVLILSYARGRTLTYAKSMLEWLSPSLLKTWENRNNTSPFEIGSRIKIIAPNELSKYPGSKICFVSEVGALINEVIIKVGNSEKTTLILTKPSFECASSLDKILEIVEQDERNWKTFPEDGKSFLCDNYISIDTIKEEPLSKEETEAFKVQLKEKKRDRNKKILLVKRESKKLANGNAIIDDTNGERAMRNQDILVENVNGVPPIDHIMGGDEDDDEEEENDNLLNLLKDNSEKSAAKKNTEVPVDIIIQPSAASKHKMFPFNPAKIKKDDYGTVVDFTMFLPDDSDNVNQNSRKRPLKDGAKTTSPVNEEDNKNEEEDGYNMSDPISKRSKHRASRYSGFSGTGEAENFDNLDYLKIDKTLSKRTISTVNVQLKCSVVILNLQSLVDQRSASIIWPSLKSRKIVLSAPKQIQNEEITAKLIKKNIEVVNMPLNKIVEFS	soluble
MTYLAVVLNGPKAKNGRKVFDSFLEQNRQMFWNRELTSACESITYMGFMRPGTLFVSGPASQLTVLKDAWARRILKPAMGYTITSLGDLGAIQQVEQMHFVPLGDVICDAVAQLNRQGLAATEQAIRQYVARHCPHVAPPGIEMVRQTITSLLSTGFVYKMADHYFVSVPTNSPMRPPAKAATKTTKTTVECQTGASMMCPQQTSTSSDEHVIEPAKKDHKKCQNSNRRSIFARLFSRGMKPQTIMPSASPIHVGGPPTPPPAAMLPTKNKYPTYHHDLNEECQRKARRRNHPRRGETQKLLSSSSECLKYYPVDMPETRPTRRRARMASPLRSSTPNNSDSAYSISPPHTDSNEEAGSISDSEINHTYININKFRRQNFDSTQFEDLTGATATTSEEPEILGRHIRGVLISNL	not soluble
MTYVDGFVLPVPEGKIDAYRQMAESAGKIWMEHGALQYKECVLEDAKPEMPEDAPETCKITPFGKLAGTKDGETVIFAFIVYKSREHRDEVNKKVMADPRMQEACDENNMPFDPSRMAYGGFKALVDL	not soluble
MVALPTINQLVRKGREKVRKKSKVPALKGAPFRRGVCTVVRTVTPKKPNSALRKVAKVRLTSGYEVTAYIPGEGHNLQEHSVVLIRGGRVKDLPGVRYHIVRGVYDAAGVKDRKKSRSKYGTKKPKEAAKTAAKK	soluble
MVALRGKEIDAFLARPDAGRPIVLLYGPDAGLVRERADALIASAVDDPNDPFSLVRLDGDELSAEPSRLVDEAMTVPLFGGQRAIRVRAGSRSFASGIDTLAEMGVKDCRIVIEAGELRPESPLRKACERAKTAVAIGCYPDTERDLAKLMDDELRIANLRIAQDARAALMSFLGGDRQASRNELRKLTLYAHGKGEITLEDVMAVVADASELKLDPIVDGAFAGRPDIVETEFAKAMIAGTYPGVIISAAQRQAAWLHKSALAIADGQPASAVLDGGFPRLHFSRKPAVETALRNFSVARLAAIIEQLATAALDTRKQSTLAAAIAQRTLMAIAANAKRRGLEHHHHHH	not soluble
